Experimental data as given in US20190330625A1, “CONSEQUENCES OF A DEFECTIVE SWITCH IN CUTANEOUS SQUAMOUS CELL CARCINOMA” (AGENCY FOR SCIENCE, TECHNOLOGY AND RESEARCH, published 2019).
Values belong to the binder of their own block, whether it stands above or below them.

Experiments:
[1] = biological target: T1, Wnt7a (UniProt O00755 32-349, limits assumed); assay: co-IP with anti-FSTL1 antibody or IgG control from A253 lysate, western blot for Wnt7a
T1 construct: Endogenous protein of the A253 (HNSCC) cell lysate
T1 sequence (looked up): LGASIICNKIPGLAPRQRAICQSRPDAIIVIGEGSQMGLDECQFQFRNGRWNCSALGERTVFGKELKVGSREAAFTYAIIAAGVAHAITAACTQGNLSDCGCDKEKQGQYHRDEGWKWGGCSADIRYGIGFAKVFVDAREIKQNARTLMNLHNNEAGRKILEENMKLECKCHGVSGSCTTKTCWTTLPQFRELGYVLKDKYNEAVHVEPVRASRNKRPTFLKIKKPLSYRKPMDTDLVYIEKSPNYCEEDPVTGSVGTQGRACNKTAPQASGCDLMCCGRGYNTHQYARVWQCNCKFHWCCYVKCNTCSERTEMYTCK

[2] = biological target: HuR (ELAVL1) (UniProt Q15717 Q15717:1-326); assay: EMSA; 0.2-0.6 uM HuR; 30 mM Tris pH 7.4, 5 mM MgCl2, 50 mM KCl, yeast tRNA, room temperature; sequence listed as DNA, assayed as RNA transcript; settings: pre-miRNA hairpin
Chain of HuR (ELAVL1) (Q15717 whole entry, one chain of several): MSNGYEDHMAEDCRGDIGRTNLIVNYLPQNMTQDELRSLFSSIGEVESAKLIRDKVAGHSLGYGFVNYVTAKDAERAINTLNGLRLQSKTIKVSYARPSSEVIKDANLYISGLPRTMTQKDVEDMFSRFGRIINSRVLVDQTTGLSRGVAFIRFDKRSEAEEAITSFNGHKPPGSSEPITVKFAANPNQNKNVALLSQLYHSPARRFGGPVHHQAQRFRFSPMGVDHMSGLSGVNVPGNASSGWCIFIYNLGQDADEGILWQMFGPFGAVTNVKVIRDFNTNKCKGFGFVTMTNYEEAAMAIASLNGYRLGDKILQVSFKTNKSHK
Protocol: After 30 minutes at room temperature, reaction products were resolved through 6% native polyacrylamide gel electrophoresis. […] The resulting gel was dried and the protein RNA complex and unbound RNA were visualized by phosphor-imaging.

binding result [1]: binds
B1: Follistatin-related protein 1 (FSTL1) (other)
chain: EEELRSKSKICANVFCGAGRECAVTEKGEPTCLCIEQCKPHKRPVCGSNGKTYLNHCELHRDACLTGSKIQVDYDGHCKEKKSVSPSASPVVCYQSNRDELRRRIIQWLEAEIIPDGWFSKGSNYSEILDKYFKNFDNGDSRLDSSEFLKFVEQNETAINITTYPDQENNKLLRGLCVDALIELSDENADWKLSFQEFLKCLNPSFNPPEKKCALEDETYADGAETEVDCNRCVCACGNWVCTAMTCDGKNQKGAQTQTEEEMTRYVQELQKHQETAEKTKRVSTKEI
notes: Endogenous secreted glycoprotein in A253 cell lysates, pulled down with the anti-FSTL1 antibody; also called follistatin-like-1

B2: pre-miR-198 WT (ssRNA)
RNA: UCAUUGGUCCAGAGGGGAGAUAGGUUCCUGUGAUUUUUCCUUCUUCUCUAUAGAAUAAAUGA
binding result [2]: binds
